In the supplement of paper PMC7125110:
± gives the standard error. This sample holds only a part of the variants without activity.

B1: glmS ribozyme (parent)
chain: AUAAAAGCGCCAGAACUACAGAAAUGUAGUUGACGAGGAGGAGGUUUAUCGAAUUUUCGGCGGAUGCCUCCAAA

Experiments:
Conditions in all cases: with glucosamine-6-phosphate
[1] = variants of: B1; assay: self-cleavage kobs at 40 uM GlcN6P; higher = faster cleavage; RNA array
How it was run: (§1)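 kobs was derived by fitting per-tile medians to one- or two-exponential decays after normalising signals to baseline and to non-cleaving reference variants. Those signals came from barcoded ribozyme variants transcribed in situ by E. coli RNA polymerase on sequenced MiSeq chips, followed through a hybridised Cy3 probe at 37 °C and imaged over ~14 h. Glucosamine-6-phosphate (40 μM to 10 mM) in HEPES/KCl/Mg(OAc)2 buffer was flowed in. Weighted Michaelis–Menten fits across concentrations then gave kcat and KM.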

[2] = variants of: B1; assay: self-cleavage kobs at 10000 uM GlcN6P; higher = faster cleavage; RNA array
How it was run: as §1

[3] = variants of: B1; assay: self-cleavage kobs at 640 uM GlcN6P; higher = faster cleavage; RNA array
How it was run: as §1

[4] = variants of: B1; assay: self-cleavage kobs at 2500 uM GlcN6P; higher = faster cleavage; RNA array
How it was run: as §1

[5] = variants of: B1; assay: self-cleavage kobs at 160 uM GlcN6P; higher = faster cleavage; RNA array
How it was run: as §1

| Variant | self-cleavage kobs at 40 uM GlcN6P [1] | self-cleavage kobs at 10000 uM GlcN6P [2] | self-cleavage kobs at 640 uM GlcN6P [3] | self-cleavage kobs at 2500 uM GlcN6P [4] | self-cleavage kobs at 160 uM GlcN6P [5] |
| --- | --- | --- | --- | --- | --- |
| U30A C58G U65C | < 1e-05 s⁻¹ | – | – | – | – |
| A14C U55G | 9.05e-05 ± 2.8e-05 s⁻¹ | 0.00435 ± 0.0012 s⁻¹ | – | – | – |
| A33C G43C C58A U69A | < 1e-05 s⁻¹ | < 1e-05 s⁻¹ | < 1e-05 s⁻¹ | – | – |
| G43U G59A G60C | < 1e-05 s⁻¹ | < 1e-05 s⁻¹ | – | < 1e-05 s⁻¹ | – |
| A39C A42U C67G | < 1e-05 s⁻¹ | – | – | < 1e-05 s⁻¹ | – |
| C8U A33U G66C | < 1e-05 s⁻¹ | – | – | – | – |
| C58U G60U | < 1e-05 s⁻¹ | < 1e-05 s⁻¹ | < 1e-05 s⁻¹ | < 1e-05 s⁻¹ | – |
| G37C U55C | < 1e-05 s⁻¹ | 5.46e-05 ± 9.7e-06 s⁻¹ | – | – | – |
| G37C U65G U69G | < 1e-05 s⁻¹ | < 1e-05 s⁻¹ | – | – | – |
| A6C C34U | < 1e-05 s⁻¹ | < 1e-05 s⁻¹ | < 1e-05 s⁻¹ | < 1e-05 s⁻¹ | < 1e-05 s⁻¹ |
| C11G U46A | < 1e-05 s⁻¹ | < 1e-05 s⁻¹ | – | < 1e-05 s⁻¹ | < 1e-05 s⁻¹ |
| C10U C11G G43C G59A | < 1e-05 s⁻¹ | – | – | < 1e-05 s⁻¹ | < 1e-05 s⁻¹ |
| G7U C10G C68G | 0.000171 ± 5.8e-05 s⁻¹ | 5.21e-05 ± 1.6e-05 s⁻¹ | – | – | – |
| C8U G9C C10A G37U G40U G41A C50U | < 1e-05 s⁻¹ | – | – | – | – |
| C8A A15G U54A | < 1e-05 s⁻¹ | < 1e-05 s⁻¹ | – | – | – |
| G29A U49C U69A | < 1e-05 s⁻¹ | < 1e-05 s⁻¹ | – | – | – |
| A14U G41A G44A G60A | < 1e-05 s⁻¹ | – | – | – | – |
| C10U G40U U49C C70A | < 1e-05 s⁻¹ | < 1e-05 s⁻¹ | – | – | – |
| A36U A52G C70A | 5.42e-05 ± 1.4e-05 s⁻¹ | – | 0.000171 ± 6.6e-05 s⁻¹ | – | – |
| C16U C71G | 6.56e-05 ± 7.6e-06 s⁻¹ | 0.000726 ± 0.0001 s⁻¹ | 0.000313 ± 4.5e-05 s⁻¹ | 0.000215 ± 3.4e-05 s⁻¹ | 0.00019 ± 2.6e-05 s⁻¹ |
| A6C C8A A48U A52C | < 1e-05 s⁻¹ | < 1e-05 s⁻¹ | – | – | – |
| G29C A39C A48C G60A | < 1e-05 s⁻¹ | < 1e-05 s⁻¹ | – | – | – |
| G60U U69G | < 1e-05 s⁻¹ | < 1e-05 s⁻¹ | < 1e-05 s⁻¹ | – | – |
| G9U C11U C68U | < 1e-05 s⁻¹ | – | – | – | – |
| G13U A36G | < 1e-05 s⁻¹ | < 1e-05 s⁻¹ | < 1e-05 s⁻¹ | < 1e-05 s⁻¹ | < 1e-05 s⁻¹ |
| A53C U56C | < 1e-05 s⁻¹ | – | – | 0.000121 ± 2e-05 s⁻¹ | – |

| Variant | self-cleavage kobs at 40 uM GlcN6P [1] | self-cleavage kobs at 10000 uM GlcN6P [2] | self-cleavage kobs at 640 uM GlcN6P [3] | self-cleavage kobs at 2500 uM GlcN6P [4] | self-cleavage kobs at 160 uM GlcN6P [5] |
| --- | --- | --- | --- | --- | --- |
| A6G U30G U54A C67G | < 1e-05 s⁻¹ | < 1e-05 s⁻¹ | – | – | – |
| A36G U54C | < 1e-05 s⁻¹ | – | – | – | < 1e-05 s⁻¹ |
| C16G G35A | < 1e-05 s⁻¹ | < 1e-05 s⁻¹ | < 1e-05 s⁻¹ | – | < 1e-05 s⁻¹ |
| A12C G38C A42U | < 1e-05 s⁻¹ | < 1e-05 s⁻¹ | – | – | – |
| A6G C16U G32C G41U C68U | < 1e-05 s⁻¹ | < 1e-05 s⁻¹ | < 1e-05 s⁻¹ | < 1e-05 s⁻¹ | – |
| C11U G13A A14C A52C G66A | < 1e-05 s⁻¹ | < 1e-05 s⁻¹ | – | – | – |
| G35U A64C C68A | < 1e-05 s⁻¹ | – | – | – | – |
| G9A A14C G41U U55C | < 1e-05 s⁻¹ | – | – | – | – |
| C16A G37C A48U U49C A52G G62C | < 1e-05 s⁻¹ | < 1e-05 s⁻¹ | – | – | – |
| A15G G62U | < 1e-05 s⁻¹ | < 1e-05 s⁻¹ | – | – | – |
| C34U C61A C67G | 0.00044 ± 0.00014 s⁻¹ | – | 0.000318 ± 0.00013 s⁻¹ | – | – |
| A36C C70A | 3.5e-05 ± 1.7e-05 s⁻¹ | – | 6.93e-05 ± 3e-05 s⁻¹ | – | 0.000113 ± 3.7e-05 s⁻¹ |
| U45A A53G U55G | 0.00113 ± 0.00021 s⁻¹ | 0.0551 ± 0.018 s⁻¹ | – | – | – |
| G38U A48G G51U | < 1e-05 s⁻¹ | < 1e-05 s⁻¹ | – | – | – |
| U56G G59A C68A | < 1e-05 s⁻¹ | < 1e-05 s⁻¹ | < 1e-05 s⁻¹ | – | – |
| G40A G63A | < 1e-05 s⁻¹ | < 1e-05 s⁻¹ | – | < 1e-05 s⁻¹ | – |
| C16U G43C | < 1e-05 s⁻¹ | < 1e-05 s⁻¹ | – | – | – |
| G41U U65C | < 1e-05 s⁻¹ | 2.23e-05 ± 7.2e-06 s⁻¹ | – | – | < 1e-05 s⁻¹ |
| A6G A36C G51A | < 1e-05 s⁻¹ | < 1e-05 s⁻¹ | – | < 1e-05 s⁻¹ | – |
| C8A C67G | < 1e-05 s⁻¹ | < 1e-05 s⁻¹ | < 1e-05 s⁻¹ | < 1e-05 s⁻¹ | < 1e-05 s⁻¹ |
| G35C G59A | < 1e-05 s⁻¹ | – | < 1e-05 s⁻¹ | < 1e-05 s⁻¹ | < 1e-05 s⁻¹ |
| C50G G59A | 4.42e-05 ± 2.2e-05 s⁻¹ | – | – | – | 8.57e-05 ± 2.1e-05 s⁻¹ |
| G7A G9U A48G | < 1e-05 s⁻¹ | – | – | – | – |
| G44U A52C | < 1e-05 s⁻¹ | < 1e-05 s⁻¹ | < 1e-05 s⁻¹ | < 1e-05 s⁻¹ | < 1e-05 s⁻¹ |
| C68U U69G C71A | < 1e-05 s⁻¹ | – | – | – | – |
